# From PMC5532264
# Experiments:
# [1] = AFM, tether rupture events per retraction; settings: glycan lost; control: DC-SIGN-WT
# [2] = linear fit to averaged AFM retraction FD-curves; settings: glycan lost; control: untreated CHO-DC-SIGN-WT
# [3] = cell surface expression by flow cytometry, CHO; settings: glycan lost; control: DC-SIGN-WT
protein,measurement,setting,value
DC-SIGN (CD209): N80A (protein) parent chain: MSDSKEPRLQQLGLLEEEQLRGLGFRQTRGYKSLAGCLGHGPLVLQLLSFTLLAGLLVQVSKVPSSISQEQSRQDAIYQNLTQLKAAVGELSEKSKLQEIYQELTQLKAAVGELPEKSKLQEIYQELTRLKAAVGELPEKSKLQEIYQELTWLKAAVGELPEKSKMQEIYQELTRLKAAVGELPEKSKQQEIYQELTRLKAAVGELPEKSKQQEIYQELTRLKAAVGELPEKSKQQEIYQELTQLKAAVERLCHPCPWEWTFFQGNCYFMSNSQRNWHDSITACKEVGAQLVVIKSAEEQNFLQLQSSRSNRFTWMGLSDLNQEGTWQWVDGSPLLPSFKQYWNRGEPNNVGEEDCAEFSGNGWNDDKCNLAKFWICKKSAASCSRDEEQFLSPAPATPNPPPA,other: membrane tether formation,[1],no change
same,"other: adhesion-site elasticity (cell stiffening), fold_change",[2],decreases
same,expression_or_secretion,[3],no change
